According to US20250188194A1, “Method of treatment” (Nucleus Therapeutics Pty Ltd, priority 2021, published 2025):

Columns and labels:
[1] = test system: differentiated PLB-985 cells; experiment: Quantifying extracellular DNA by SYTOX Green stain after PMA stimulation; type: cell-based, human; conditions: one hour pre-treatment with 10 μM DX1, 300 nM PMA two hours, plate reader; N=3
Procedure: FIGS. 2A-2D. DAPI and SYTOX™ Green stains support the conclusion that DX1inhibits chromatin decondensation and DNA release by differentiated PLB-985 cells stimulated with PMA. (2A) Chromatin decondensation in differentiated PLB-985 cells after stimulation with PMA±a one hour pre-treatment with 10 μM DX1 was visualized by DAPI stain. Left panel: Control cells with decondensed DAPI stain after PMA stimulation. Right panel: DX1-treated cells retaining condensed DAPI signal after PMA stimulation. Bar: 25 μm. (2B) Quantification of the percentage of differentiated PLB-985 cells with decondensed DAPI stain after PMA stimulation. […] (2C) DNA release by differentiated PLB-985 cells after stimulation with PMA±a one hour pre-treatment with 10 μM DX1 was visualized by addition of the impermeant DNA stain SYTOX™ Green. Representative images are shown. Bar: 25 μm. (2D) SYTOX™ Green signal in wells containing differentiated PLB-985 cells stimulated with PMA±a one hour pre-treatment with 10 […] was quantified by plate reader. […]
SYTOX™ Green is an impermeant fluorescent DNA stain that facilitates visualization of DNA released in NETosis. Differentiated PLB-985 cells treated with control or 10 μM DX1 and stimulated with PMA were exposed to SYTOX™ Green, and fluorescence was visualized under fluorescence microscopy and quantified by plate reader. […]

[2] = test system: differentiated PLB-985 cells; experiment: Quantifying DNA released (adherent NET-DNA) after PMA stimulation by spectrophotometry; type: cell-based, human; conditions: 10 μM DX1 one hour, 300 nM PMA four hours; PMA control 4.50±0.14; N=3
Procedure: The results of the DAPI and SYTOX™ Green staining studies in FIG. 2C, 2D are consistent with DX1-mediated inhibition of chromatin decondensation and DNA release by differentiated PLB-985 cells. To further probe this effect, DNA-protein release was measured by differentiated PLB-985 cells after PMA stimulation by resuspending and quantifying DNA-protein complexes adherent to wells by spectrophotometry using a previously described protocol for isolation and quantification of NET-DNA in cell culture. This assay is based on the concept that intact cells for the most part remain in suspension, while DNA-protein complexes released in NETs are at least partially adhered to wells. This distinction allows for separation of intact cells from adherent NET-DNA by aspiration of the cell culture supernatants, followed by resuspension of adherent DNA-protein complexes and quantification by spectrophotometry.
Next, the ability of this assay to detect the effect of a known NETosis inhibitor on DNA release by differentiated PLB-985 cells stimulated by PMA was verified. […] Differentiated PLB-985 cells were treated with 0-50 μM of GSK484 for one hour prior to stimulation with PMA, followed by quantification of adherent DNA by spectrophotometry. […]

B1: DX1: 3E10 derivative, a di-scFv having the sequence SEQ ID NO: 38; nuclear-penetrating anti-DNA binding protein (protein)
scFv: DIQMTQSPSSLSASLGDRATITCRASKTVSTSSYSYMHWYQQKPGQPPKLLIKYASYLESGVPSRFSGSGSGTDFTLTISSLQPEDAATYYCQHSREFPWTFGGGTKVEIKTVDAAPGGGGSGGGGSGGGGSEVQLVESGGGLVQPGGSLRLSCAASGFTFSNYGMHWVRQAPGKGLEWVSYISSGSSTIYYADSVKGRFTISRDNAKNSLYLQMNSLRAEDTAVYYCARRGLLLDYWGQGTTVTVSSASTKGPSVFPLAPLESTGSDIQMTQSPSSLSASLGDRATITCRASKTVSTSSYSYMHWYQQKPGQPPKLLIKYASYLESGVPSRFSGSGSGTDFTLTISSLQPEDAATYYCQHSREFPWTFGGGTKVEIKTVDAAPGGGGSGGGGSGGGGSEVQLVESGGGLVQPGGSLRLSCAASGFTFSNYGMHWVRQAPGKGLEWVSYISSGSSTIYYADSVKGRFTISRDNAKNSLYLQMNSLRAEDTAVYYCARRGLLLDYWGQGTTVTVSS
modifications: DX1 sequence
SYTOX Green signal relative to control [1]: 0.40±0.01 | released/adherent DNA content relative to unstimulated control cells [2]: 1.80±0.11
